This is an account of results in the nanobody polyreactivity screen of Harvey et al. (2022).

The nature of the series: yeast display, Sf9 membrane polyspecificity reagent, FACS + sequencing; frameworks hold sequencing errors. In outline:
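In a synthetic yeast display library (Saccharomyces cerevisiae BJ5465), nanobody expression was induced with galactose for 36–48 hours. FACS gates were set low and high (top ~1%) using anti-HA fluorescence for expression and streptavidin fluorescence for binding of the Sf9 membrane reagent. Each polyreactivity label is drawn from the gate of origin.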
With “QVQLVESGGGLVQAGGSLRLSCAASGSTFSYYAMGWYRQAPGKERELVAAISSSGGSTYYADSVKGRFTISRDNAKNTVYLQMNSLKPEDTAVYYCNADSWRRRGRSRYDHWGQGTQVTVSS”, the “polyreactivity (PSR sort gate)” value was “low polyreactivity”.
On to “QVQLVESGGGLVQSGGSLRLSCAASGSTSINYAMGWYRQAPGKERELVATISRGGSTTYADSVKGRFTISRDNAKNTVYLQMNSLKPEATAVYYCAKDRYPADEDYWGQGTQVTVSS”, for which the “polyreactivity (PSR sort gate)” value is reported as “low polyreactivity”.
Regarding “QVQLVESVGGLVQAGASLRLTCAASGSIFWYAMGWYRQAPRQERELVAGISRGGSTYYADSVKGRFTISRDNAKNTVYLQMNSLKPEDTAVYYCNTAGYYGTPSNYWGQGTQVTVSS”, the “polyreactivity (PSR sort gate)” value is “low polyreactivity”.
With “QVQLVESVGGLVQAGGSLRLSCASSGYIFAYYGMGWYRQAPGNERELVAAISWSGGSTDYADSVKGRFTISRDNAKNTGYLQMNRLKPEDTAVYYCATRKYADRESDYWGQVTQVTVSS”, the “polyreactivity (PSR sort gate)” value is “high polyreactivity”.
Regarding “QVQLVESGGGLVQARGSLRLSCAASGSTFVGYAMGWYRQAPGKEREFVAAITRGGSTNYADSVKGRFTISRDNAKNTVYLQMNSLKPEDTAVYYCAARDRREGFNFDYWGQGTQVTVSS”, the “polyreactivity (PSR sort gate)” value is on record as “low polyreactivity”.
“QVQLVESGGGLVQAGGSLRLSCAGSGSTFYRYALGWYRQAPGKEWEWVAVINSGCSTYYADSVKGRFTISRDNAKHTVYVQMNSMKPEDTAVSYCAAVRNQGGYVYGYGYWGQGTQVTVSS”: the “polyreactivity (PSR sort gate)” value was “high polyreactivity”.
With “QVQLVESGVGLVQAGGSLRLSCAASGSIFPPYAMGWYRQAPGKERELVAAITSGGRTNYADSVKGRFTISRDNAKNTVYLQMNSLKPEDTEVYYCAQTGSYAKIRPNNDYWGQGTQVTVSS”, the “polyreactivity (PSR sort gate)” value is on record as “low polyreactivity”.
Regarding “QVQLVESGGGLVQAGGSLRLSCAASGLISYRNAMGWYRQAPGKERELVAAISSDGSTYYADSVKGRFTISRDNAKNTVYLQMNSLKPVDTAVYYCAADYREFDAYGAARTLDFDYWGQGTQVTVSS”, the “polyreactivity (PSR sort gate)” value is “low polyreactivity”.
On to “QVQLVESGGGLVQAGGILRLSCAASGSIFAHYTMGWYRKAPGKERELVAAISGSGGSTYYADSVKGRFTISRDNAKNTVYLQMNSLKPEVTAVYYCNKRYRPVGPYDYWGQGTQVTVSS”, for which the “polyreactivity (PSR sort gate)” value was “high polyreactivity”.
The value for “QVQLVESGGGLVQAGGSLRLSCAASGLIFSYNAMGWYRQAPGKERELVATISYSGGTTYYADSVKGRFTISRDNAKNTVYLQMNSLKPEDTAVYYCAARTLYSPGRPWKWYNYGRYGYWGQGTQVTVSS” was “high polyreactivity”.
With “QVQLVESGGGLVQAGGSLRLSCAASGSIFVGNAMGWDRQAPGKERELVATLSWSGGSTYYADSVKGRFTISRDNAKNTVDLQMNSLNPEDTAVYYCAKTPYRRYRYGGYTYRTYDYWGQGTQVTVSS”, the “polyreactivity (PSR sort gate)” value is “low polyreactivity”.
As for “QVQLVESGGGLVQAGGSLRLSCAASGRTFRYYAMGWYRQAPGKERELVADISWSGGRTTYADSVKGRFTISRDNAKNTVYLQMNSLKPEDTAVYYCAKVLYYPSNDYWGQGSQVTVSS”, the “polyreactivity (PSR sort gate)” value is listed as “high polyreactivity”.
In the case of “QVQLVESGGGLVQAGGSLRLSCAASGSTFAPYAMGWYRQAPGKERELVATISFRGGSTYYADSVKGRFTISRDNEMNTVFLEMNNLKPEDTAVYYCNAQRRYPYGYGYWGQGTQVTVSS”, the “polyreactivity (PSR sort gate)” value was “high polyreactivity”.
The value for “QVQLVESGGGLVQAGGSLRLSCAASGFIFTRYAMGWYRPAPGKERELVAAISASGGSTYYADSVKGRFTISRDNAKNTVYLQMNSLKPEDTAVYYCAAGGSWFRYPPRMDYWGQGTQVTVSS” was “high polyreactivity”; that for “QVQLVESGGGLVQAGGSLRLSCAASGSTFGANAMGWYRQAPGKERELVAVITWNDGSTYYADSVKGRFTISRDNAKNTVYLQMNSLKPEDTAVYYCATDPTSGRFYYWGQGTQVTVSS” was “high polyreactivity”.
Take “QVQLVESGGGLVQAGGSLRLSCAASGFIFYYNAMGWYRQAPGKERELVATITSGGSTNYADSVKGRFTISRDNAKNTVYLQMNSLKPEDTAVYYCAAGHSWVYGYDYWGQGTQVTVSS”: the “polyreactivity (PSR sort gate)” value was “low polyreactivity”.
The value for “QVQLVESGGGLVQAGGSLRLSCAASGFTFKLYAMGWYRQAPGKERELVAVITTSGGRTYYADSVKGRFTISRDNANNTVYLQMTSLKPEDTAVYYCAKVVFVRVAPGYYWGQGTQVTVSS” was “high polyreactivity”; that for “PVQLVESGGGLVQAGGSLRLSCAASGFIFSWYAMGWYRPAPGKDRELVAAISRSGGSTYADSVKGRFTIARDNAKNTVYLQMNSLKPEDTAVYYCAAGSYWSYWDSRYDYWGQGTQVTVSS” was “low polyreactivity”; that for “QVQLVESGGGLVQAGGSLRLSCAASGRIFYINAMGWYRQAPGTERELVAAITEGGVSTYYADSVKGRFTSSRDNAKNTVYLQMNSLKPEDTAVYYCNTTGGPDGIVIYEYWGQGTQVTVSS” was “low polyreactivity”.
In the case of “QVQLVESGGGLVQAGGSLRLSCAASGFIFAFNAMGWYRQAPGKEREFVASITGSSDSTYYADSVKGRFTISRDNAKNTVYLQMNSLKPEDTAVYYCAADPASSYGKYSYYYWGQGTQVTVSS”, the “polyreactivity (PSR sort gate)” value is “high polyreactivity”.
Regarding “QVQLVESGGGLVQAGGSLRLSCPASGNIFGNNAMGWYRQAPGKERELVAAIDGSGGSTYYADSVKGRFTISRDKAKNTVYLQMNSLKPEDTAVYYCAKTAVIWRTWRTVPSPGYHFGYWGQGTQVTVSS”, the “polyreactivity (PSR sort gate)” value is recorded as “low polyreactivity”.
Regarding “QVQLVESGGGLVQAGGRLRLSCAASGRTMGWYRQAPGKERELVAAISSGGGSTYYADSVKGRFTISRDNAKNTVYLQMNSLKPEDTAVYYCARTTIAQLHSIVAPHDYWGQGTQVTVSS”, the “polyreactivity (PSR sort gate)” value is reported as “low polyreactivity”.
As to “QVQLVESGGRLVQAGGSLRLSCAASGSTFYPYAMGWYRQAPGKERELVAAINGNGGRTYYADSVKGRFTISRDNAKNTVYLQMNSLKPEDTAVFYCAVVRVAWGHRSDYWGQGTQVTVSS”, the “polyreactivity (PSR sort gate)” value is listed as “high polyreactivity”.
For the sequence “QVQLVYSGGGLVQSGGSLRLSCAASGYIVQPYAMGWYRQAQGKERELVAPISWRGGSTYSADSVKGRFTISRDNAKNTVYLQMYSLKPEDTAVYYFAKDYYYGLEHYGYWGQGTQVTVSS”, the “polyreactivity (PSR sort gate)” value is “low polyreactivity”.
With “QVQLVESGGGLVQAGGSLRLSCAASGRIFYRYARGWYRQAPGKEREFVAAITSGTSTNYADSVKGRFTISRDNAKNSLYVQRNSLKPEDTAVYYCATRYYWKYAEYDYWGQGTQVTVSS”, the “polyreactivity (PSR sort gate)” value is “high polyreactivity”.
In the case of “QVQLVESGGGLVQAGGSLRLSCAASGRIFGQYAMGWYRQAPGKEREFVAGISTTGGSTYYADSVKGRFTISRDNAKNTVYLQMNSLKPEDTAVYYCAVRINWSRWYHYYTYNYWGQGTQVTVSS”, the “polyreactivity (PSR sort gate)” value is “high polyreactivity”.
Turning to “QVQLEESGGGLVQAGGSLRLSCAASGSICGVYVMGWYRQAPGKERELVASISRGTTTNYADSVKGRFTISRDNAKNTVYLQMNSLKPEDTAVYYCNADIRGFFFQYDYWGQGTQVTVSS”, the “polyreactivity (PSR sort gate)” value is on record as “low polyreactivity”.
Regarding “QVQLVESGGGLVQAGGSLRLSCAASGSTFWHNAMGWYRTAHGKERELVAGISSIGGRTYYADSVKGRFTISRDNAKNTVYLQMNSLKQEDTAVYYCAARYRRTIPWFAPGTDHNYWGQGTQVTVSS”, the “polyreactivity (PSR sort gate)” value is “high polyreactivity”.
Consider “QVQLVESGGGLVQAGGSLRLSCAASGRILTFNAMGGYRQAPVKERELVASISNGGSTIYADSVKGRFSISRDNAKNTVYLQMNSLKPEDTAVYYCAALNASQGTVTFYIFDYWGQGTQVTVSS”, for which the “polyreactivity (PSR sort gate)” value is on record as “low polyreactivity”.
The value for “QDQLVESAGGLVQAGGSRRLSCAASGFTFYRNAMGCYRQAPGKERELVAAISITGGRTYYADSVKGRFTISRDNAKNTVYLQMNSLIPEDTAVYYCAKDRQRYGGDFDYWGQGTQLTVSS” was “high polyreactivity”; that for “QVQLVESGGGLVQAGGSLRLSCAASGRIFGDNAMGWYRQAPGKERELVADITSSGGSTHYADSVKGRFTISRDNAKNNVYLQLNSLKPEDTEVYYCNADDYVYFDDGDYWGQGTQVTVSS” was “low polyreactivity”; that for “QVQLVESGVGLVQAGGSLRLSCAASGSTFDANAMGWYIQAPGKERELVAAITSNGGSTYYADSVKGRFTISRDNAKNTVYLQMNSLKPEDTAVYYCASEQHTVQDYDYWGQGTQVTVSS” was “low polyreactivity”.
Regarding “QVQLVESGGGLVQAGGSLRLSCAASGLTFNSYDMGWYRQAPGKERELVAAISSGGVLPNYADSVKGRFTISRDNAKNTVYLQMNSLKPEDTAVYYCAAGYEYDVSDFDYWGQGTQVTVSS”, the “polyreactivity (PSR sort gate)” value is “low polyreactivity”.
The entry for “QVQLEESGGGLVQAGGSLRLTGAASGSTVVSYAMGWYRQERGKEWELVAAISSSSGRTRYADSVKGSFTISRDNAKNTVYLQMNSLKPEDTAVYYCAARRQSTRPGFYYWGQGTQVTVSS” is “high polyreactivity”; for “QVQLVESGGGLVQAGGSLRLSCAASGRIFQRYAMGWYSQAPGKERELVAAISSRGGRTFYADSVKGRFTISRDNAKNTVYLQMNSLKPEDTAAYYCAATATVGCVSFDYWGQGTQVTVSS” it is “high polyreactivity”.
In the case of “QVQLVESGVGLVQAGGSLRLSCAAYGRTFYYYAMGWYRQAPGKERELVAGITWSGGSTKYADSVKGRFTISRDNAKNTVYLQMNSLKPEDTAVYYCNARPPRWVRSMDYWGQGTQVTVSS”, the “polyreactivity (PSR sort gate)” value was “high polyreactivity”.
Consider “QVQLVESGGGLVQAGGSLRLAVLPPELTSTLNDMGWYRQAPGKERELVAAITRGGSTNYADSVKGRFTISRDNAKYTFYLQMNSMKPEDSAVYYCAAPYAGLRDGGDYWGQGTQVTVSS”, for which the “polyreactivity (PSR sort gate)” value is listed as “low polyreactivity”.
Take “QVQIVESGGGLVQAGGSLRLTCAASGFIFSRYAMGWYRQAPAKERELVAAITSGGRTNYADSVKGRFTISRDNAKNTVYLQMNRLKPEDTAVYYCSGAFYPFWPRYTSDYWGQGTQVTVSS”: the “polyreactivity (PSR sort gate)” value is “high polyreactivity”.
With “QVQLVESGGGLVQAGGSLRLSCAASGLTFLYYAMGWYRQAPGKERELVAAISSRGGSTYYADSVKGRFKISRDNAKNTVYLQMNSLKPEDTAVYYCNAVRGDEYWGQGTQVTVSS”, the “polyreactivity (PSR sort gate)” value is listed as “high polyreactivity”.
With “QVQLVESGGGLVQAGGSLRLSCAASGFIFSGNAMGWYRQAPGKERELVAAISTSGGRTYYADSVKGRFTISRDNAKNSDYLQMKSLKPEDTAVYYFNRAPWYRYTRDKYEYWGQGTQVTVSS”, the “polyreactivity (PSR sort gate)” value is reported as “high polyreactivity”.
The entry for “QVQLVESGGGLVQAGGSLRLSCAASGSIFHIYMGGYRQAPGKERELVASMSYRGGTTYYADSVKGRFTISRDNAKNTVYLQKNSLKPEDTAVYYCNVHRDFYHYGRYGHMDYWGQGC” is “low polyreactivity”.
